Source: US20250250301A1, “DE NOVO DESIGNED BINDERS TARGETING HUMAN EPCAM AND PDL1 RECEPTORS” (University of Washington, priority 2022, published 2025)
Where no end group is shown, it is not given here. AF594 = Alexa Fluor 594

Legend:
PDL1+SKOV3 cells = assay: Cell binding assay with AF594-labeled binder, SKOV3 cells; format: cell-based, human
Experimental: FIG. 3. Cell binding assay. Binding of control antibodies are shown on the top and the binding for the designed binders are shown the bottom. […] These proteins bind their targets with low to mid nanomolar affinities based on octet data (see FIG. 2A-C). […] The rest of the designs with and without conjugated AF594 are well behaved, remain folded to 60-70° C., and completely refold upon cooling to room temperature. We show sequence, secondary structure information, and interface positions for EpcamBind1_cb4, EpcamBind2_cb10, and, PDL1Bind_cb6 in FIG. 5.

[1] = biological target: T1, human epithelial cell adhesion molecule (EpCAM) receptor, extracellular portion (human, UniProt P16422 24-265); assay: Octet (BLI), kinetic fitting to association and dissociation; binder 20 nM to 0.5 nM
T1 construct: extracellular domain; also called human EpCAM receptor
T1 sequence (looked up): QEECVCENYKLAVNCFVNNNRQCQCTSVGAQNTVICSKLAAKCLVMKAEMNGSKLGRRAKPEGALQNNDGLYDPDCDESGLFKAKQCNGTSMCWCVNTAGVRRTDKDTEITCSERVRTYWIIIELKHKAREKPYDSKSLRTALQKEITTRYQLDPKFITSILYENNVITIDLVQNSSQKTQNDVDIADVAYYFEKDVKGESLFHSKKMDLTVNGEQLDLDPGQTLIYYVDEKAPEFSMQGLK
Experimental: FIG. 4. Octet data for gs linked dimer of EpCAMBind1_cterm_cys. […] Concentrations from top curve to bottom curve are 20 nM, 10 nM, 5 nM, 2.5 nM, 1 nM and 0.5 nM.
(§1) In one embodiment of any of the polypeptides of the disclosure, the polypeptide bind to their targets with nanomolar affinity as measured by octet. In the octet experiments, the target protein is immobilized onto an octet sensor and the kinetics of the binder binding to the target are measured over a range of binder concentrations to determine the binders affinity.

human EpCAM receptor = biological target: T2, human EpCAM receptor (Homo sapiens, UniProt P16422); assay: Octet binding to immobilized human EpCAM
T2 sequence (P16422 24-265 limits assumed): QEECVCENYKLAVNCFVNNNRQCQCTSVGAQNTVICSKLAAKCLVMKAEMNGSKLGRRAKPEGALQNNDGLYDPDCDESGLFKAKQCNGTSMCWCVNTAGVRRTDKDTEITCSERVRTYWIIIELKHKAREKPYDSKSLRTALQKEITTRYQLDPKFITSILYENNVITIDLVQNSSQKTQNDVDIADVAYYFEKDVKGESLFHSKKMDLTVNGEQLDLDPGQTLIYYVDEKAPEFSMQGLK
Experimental: as §1

[2] = biological target: T1, human epithelial cell adhesion molecule …; assay: Octet (BLI), kinetic fitting to association and dissociation; binder 100 nM to 1.56 nM
Experimental: FIG. 2A. Octet data for EpcamBind1_cb4. […] Concentrations span a range from 100 nM (top curve) to 1.56 nM (bottom curve) by two-fold dilution.
as §1

[3] = biological target: T3, PDL1 on PDL1+ SKOV3 cells (human, UniProt Q9NZQ7 19-290); assay: flow cytometry on PDL1 (+) cells (PDL1+ SKOV3), binder at 500 nM and 5 uM by the legend, fluorescence at 561 nm
T3 construct: whole, on cells
T3 sequence (Q9NZQ7 19-290): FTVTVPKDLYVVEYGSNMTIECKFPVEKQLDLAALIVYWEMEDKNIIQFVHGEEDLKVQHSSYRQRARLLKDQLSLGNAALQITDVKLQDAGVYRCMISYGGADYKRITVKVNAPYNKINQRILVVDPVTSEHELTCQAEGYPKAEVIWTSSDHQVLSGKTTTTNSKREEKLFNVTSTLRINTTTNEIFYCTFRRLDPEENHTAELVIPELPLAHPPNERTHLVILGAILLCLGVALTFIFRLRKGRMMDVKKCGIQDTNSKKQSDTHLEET

[4] = biological target: T4, human programmed death-ligand 1 (PDL1) receptor, extracellular portion (human, UniProt Q9NZQ7 19-238); assay: yeast surface display screen
T4 construct: extracellular domain; also called human PDL1
T4 sequence (Q9NZQ7 19-238): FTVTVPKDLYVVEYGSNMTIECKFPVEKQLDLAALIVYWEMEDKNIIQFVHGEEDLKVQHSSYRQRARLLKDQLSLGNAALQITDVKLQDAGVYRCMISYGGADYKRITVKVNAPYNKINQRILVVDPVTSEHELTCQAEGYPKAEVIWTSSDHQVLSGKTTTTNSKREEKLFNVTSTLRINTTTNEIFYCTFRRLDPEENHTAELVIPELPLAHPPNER

[5] = biological target: T4, human programmed death-ligand 1 (PDL1) …; assay: Octet (BLI), steady state analysis
[6] = biological target: T1, human epithelial cell adhesion molecule …; assay: Octet (BLI), kinetic fitting to association and dissociation; binder 1000 nM to 15.6 nM
Experimental: FIG. 2B. Octet data for EpcamBind2_cb10. […] Concentrations span a range from 1000 nM (top curve) to 15.6 nM (bottom curve) by two-fold dilution.
as §1

[7] = biological target: T1, human epithelial cell adhesion molecule …; assay: yeast surface display screen

PDL1Bind1_E39C-AF594 (DEDTDRVFELLNEFNELREEGDPERAREVLEEAERLAKCLSDPTLESFVQAIKRVY)
binding to PDL1+SKOV3 cells (PDL1+SKOV3 cells; 500 nM and 5 uM): specifically binds | nonspecific binding to PDL1− cells (PDL1+SKOV3 cells; 5 uM, comparable to control antibody): some minor nonspecific binding

B1: gs linked dimer of EpCAMBind1_cterm_cys (designed binder)
chain: DEERLRELVEELVKELGLSERYKRTLERHLRTALEQGYDEEQIRMNLEQLAQQAREIGGSGGSDEERLRELVEELVKELGLSERYKRTLERHLRTALEQGYDEEQIRMNLEQLAQQAREI
notes: also called EpCAM1_dimer
Kd [1]: < 0.01 nM

B2: gs linked dimer of EpCAMBind1_cterm_cys: gs linked fusion dimer of EpCAMBind1; possibly related to EpCAM1_dimer, SEQ ID NO:18 (protein)
chain: DEERLRELVEELVKELGLSERYKRTLERHLRTALEQGYDEEQIRMNLEQLAQQAREIGGSGGSDEERLRELVEELVKELGLSERYKRTLERHLRTALEQGYDEEQIRMNLEQLAQQAREI
binding affinity in words, EpCAM (human EpCAM receptor): low picomolar | estimated Kd (human EpCAM receptor; kinetic fitting to association and dissociation, 20 nM to 0.5 nM): < 0.01 nM

B3: EpcamBind1_cb4 (designed binder)
chain: DEERLRELVEELVKELGLSERYKRTLERHLRTALEQGYDEEQIRMNLEQLAQQAREI
notes: Optimized de novo miniprotein (three helices) against human EpCAM
Kd [2]: 5.6 nM

B4: PDL1Bind1_E39C-AF594 (designed binder)
chain: DEDTDRVFELLNEFNELREEGDPERAREVLEEAERLAKC(AF594)LSDPTLESFVQAIKRVY
binding result [3]: binds

B5: Pdl1Bind (designed binder)
chain: DEDTRRVMELLHEASELREEGDPERAREVLEEAERLAKELGDPSLERFVQAHKRVY
binding result [4]: binds

B6: PDL1Bind_cb6 (designed binder)
chain: DEDTDRVFELLNEFNELREEGDPERAREVLEEAERLAKELSDPTLESFVQAIKRVY
notes: Optimized de novo miniprotein against human PDL1
Kd [5]: 2 nM

B7: EpcamBind2_cb10 (designed binder)
chain: DEVQHEVHELMVRIHSLVVRGNPEEARKLLEELEELAKKTNNPSYHIAVEALEHVIN
notes: Optimized de novo miniprotein against human EpCAM
Kd [6]: 500 nM

B8: EpcamBind2 (designed binder)
chain: DEVQHEVHELFVRIQELVVRGNPEEARKLLEELEELAKKYNDPSLHIAVEALERVIN
binding result [7]: binds
